T1: Weel (Schizosaccharomyces pombe, UniProt P07527 1-877)
T1 construct: Endogenous protein co-purified from S. pombe cells and detected with antibodies to Weel; also called kinase Weel; native Weel protein
T1 sequence (looked up): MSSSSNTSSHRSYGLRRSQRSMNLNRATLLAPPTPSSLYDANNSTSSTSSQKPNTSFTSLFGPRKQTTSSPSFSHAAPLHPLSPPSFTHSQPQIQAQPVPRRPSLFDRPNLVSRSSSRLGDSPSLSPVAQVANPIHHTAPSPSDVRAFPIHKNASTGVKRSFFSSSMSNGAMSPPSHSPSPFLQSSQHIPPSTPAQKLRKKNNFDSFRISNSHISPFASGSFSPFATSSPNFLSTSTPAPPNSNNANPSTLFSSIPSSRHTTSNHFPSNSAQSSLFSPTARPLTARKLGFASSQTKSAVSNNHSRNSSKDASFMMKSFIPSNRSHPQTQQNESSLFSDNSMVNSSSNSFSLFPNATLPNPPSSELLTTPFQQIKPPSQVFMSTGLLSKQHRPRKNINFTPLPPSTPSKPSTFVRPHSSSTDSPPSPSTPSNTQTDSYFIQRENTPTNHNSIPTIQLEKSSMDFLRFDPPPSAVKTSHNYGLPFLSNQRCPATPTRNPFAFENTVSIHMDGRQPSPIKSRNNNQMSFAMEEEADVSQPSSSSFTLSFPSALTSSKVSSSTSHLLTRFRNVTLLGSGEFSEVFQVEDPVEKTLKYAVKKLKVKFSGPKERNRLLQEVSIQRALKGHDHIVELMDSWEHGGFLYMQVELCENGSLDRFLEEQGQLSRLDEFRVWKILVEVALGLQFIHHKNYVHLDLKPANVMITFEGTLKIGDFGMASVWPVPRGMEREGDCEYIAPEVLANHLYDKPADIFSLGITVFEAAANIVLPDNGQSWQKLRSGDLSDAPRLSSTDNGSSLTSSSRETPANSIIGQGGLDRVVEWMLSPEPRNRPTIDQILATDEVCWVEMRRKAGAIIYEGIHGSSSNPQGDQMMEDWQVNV

T2: Cdc25 (Schizosaccharomyces pombe, UniProt P06652 1-596)
T2 construct: Endogenous protein co-purified from S. pombe cells and detected with antibodies to Cdc25
T2 sequence (looked up): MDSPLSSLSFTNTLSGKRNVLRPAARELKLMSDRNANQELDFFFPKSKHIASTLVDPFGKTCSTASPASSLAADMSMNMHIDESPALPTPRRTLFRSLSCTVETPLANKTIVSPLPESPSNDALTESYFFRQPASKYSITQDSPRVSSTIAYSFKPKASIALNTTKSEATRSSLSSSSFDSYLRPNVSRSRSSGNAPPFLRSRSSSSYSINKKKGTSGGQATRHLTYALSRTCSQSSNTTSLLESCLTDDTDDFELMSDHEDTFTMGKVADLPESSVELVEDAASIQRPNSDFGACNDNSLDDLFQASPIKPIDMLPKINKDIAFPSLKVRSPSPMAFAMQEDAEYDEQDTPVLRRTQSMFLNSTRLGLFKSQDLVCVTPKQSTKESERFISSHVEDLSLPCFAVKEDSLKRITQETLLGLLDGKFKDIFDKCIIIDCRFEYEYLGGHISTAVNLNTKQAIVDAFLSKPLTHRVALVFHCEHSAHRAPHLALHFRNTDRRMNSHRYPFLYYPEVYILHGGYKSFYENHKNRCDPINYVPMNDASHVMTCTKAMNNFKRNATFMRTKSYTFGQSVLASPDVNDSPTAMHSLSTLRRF


What was measured:
Weel [1] = molecular target: T1, Weel; experiment: GSH-Sepharose purification of GST fusion expressed in S. pombe, immunoblot with antibodies to Weel
Procedure: (§1) FIG. 2D is a photograph of an analysis of proteins which illustrates that Weel interacts with GST:cds1⁺ but not GST:Chk1 in vivo. Strains carrying integrated nmt1:GST:chk1⁺ or nmt1:GST:cds1⁺ constructs were grown in minimal medium (EMM2) without thiamine at 30° C. for 16 hr to induce expression of GST fusion proteins. Cells were lysed and GST fusion proteins purified with GSH-Sepharose. After extensive washing, samples were resolved by 10% SDS-polyacrylamide gel electrophoresis and subjected to immunoblotting with antibodies to Weel, Cdc25 and GST. A ˜110 kDa protein corresponding to Weel was detected in the GST:Cds1 sample, whereas a ˜80 kDa protein corresponding to Cdc25 was detected in the GST:Chk1 sample. The ˜110 kDa protein was not detected in samples prepared from Δweel cells. GST:Cds1 and GST:Chk1 migrate at positions corresponding to ˜82 and ˜80 kDa, respectively.
(§2) As a control, a strain that expressed GST:Chk1 was used. The GST fusion proteins were purified with GSH-Sepharose and analyzed by immunoblotting. Cdc25 (but not Weel) associated with GST:Chk1, whereas Weel (but not Cdc25) associated with GST:Cds1 (FIG. 2D).

Cdc25 [2] = molecular target: T2, Cdc25; experiment: GSH-Sepharose purification of GST fusion expressed in S. pombe, immunoblot
Procedure: as §1, §2

Weel [3] = molecular target: T1, Weel; experiment: as above
Procedure: as §1, §2

Cdc25 [4] = molecular target: T2, Cdc25; experiment: GSH-Sepharose purification of GST fusion expressed in S. pombe, immunoblot with antibodies to Cdc25
Procedure: as §1, §2

Binder | binding result (Weel [1]) | binding result (Cdc25 [2]) | binding result (Weel [3]) | binding result (Cdc25 [4])
GST:Chk1 (other, Schizosaccharomyces pombe, UniProt P34208 1-496, looked up, Expressed in S. pombe from the integrated nmt1:GST:chk1+ construct; Migrates at ~80 kDa; not shown: glutathione-S-transferase) MAQKLDNFPYHIGREIGTGAFASVRLCYDDNAKIYAVKFVNKKHATSCMNAGVWARRMASEIQLHKLCNGHKNIIHFYNTAENPQWRWVVLEFAQGGDLFDKIEPDVGIDEDVAQFYFAQLMEGISFMHSKGVAHRDLKPENILLDYNGNLKISDFGFASLFSYKGKSRLLNSPVGSPPYAAPEITQQYDGSKVDVWSCGIILFALLLGNTPWDEAISNTGDYLLYKKQCERPSYHPWNLLSPGAYSIITGMLRSDPFKRYSVKHVVQHPWLTSSTPFRTKNGNCADPVALASRLMLKLRIDLDKPRLASSRASQNDSGFSMTQPAFKKNDQKELDRVEVYGALSQPVQLNKNIDVTEILEKDPSLSQFCENEGFIKRLAKKAKNFYEICPPERLTRFYSRASRETIIDHLYDSLRLLAISVTMKYVRNQTILYVNLHDKRKCLLQGVIELTNLGHNLELINFIKRNGDPLEWRKFFKNVVSSIGKPIVLTDVSQN | no binding | binds |  | 
GST:Cds1 (other, Schizosaccharomyces pombe, UniProt Q09170 1-460, looked up, Expressed in S. pombe from the integrated nmt1:GST:cds1+ construct; Migrates at ~82 kDa; not shown: glutathione-S-transferase) MEEPEEATQATQEAPLHVSQNIAKQVVNNENVFMKLVMTRMLDGKTEVIPLTTDVHNGFWRFGRHKSCEVVLNGPRVSNFHFEIYQGHRNDSDESENVVFLHDHSSNGTFLNFERLAKNSRTILSNGDEIRIGLGVPKDEISFLCQVPVKHSRDSQKNMIKSENSHYEIIRTLGSGTFAVVKLAVEVNSGKWYAIKIINKRKILLTSSEKRATEMFQREIDILKSLHHPGVVQCHEIFENDDELFIVMEYVEGGDLMDFLIANGSIDEQDCKPLLKQLLETLLHLHKQGVTHRDIKPENILITNDFHLKISDFGLAKVIHGTGTFLETFCGTMGYLAPEVLKSKNVNLDGGYDDKVDIWSLGCVLYVMLTASIPFASSSQAKCIELISKGAYPIEPLLENEISEEGIDLINRMLEINPEKRISESEALQHPWFYTVSTHEHRTPPSSSEHEATEQLNSSS |  |  | binds | no binding

Source: patent US20030216563A1 (Scripps Research, published 2003)
